Assay results from US20210386836.

Legend:
human C5a, P01031 = target: T1, human C5a, P01031
T1 chain: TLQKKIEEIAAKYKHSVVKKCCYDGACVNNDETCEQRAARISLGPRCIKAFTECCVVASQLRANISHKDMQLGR

Factor H, P08603 = target: T2, Factor H, P08603
T2 chain: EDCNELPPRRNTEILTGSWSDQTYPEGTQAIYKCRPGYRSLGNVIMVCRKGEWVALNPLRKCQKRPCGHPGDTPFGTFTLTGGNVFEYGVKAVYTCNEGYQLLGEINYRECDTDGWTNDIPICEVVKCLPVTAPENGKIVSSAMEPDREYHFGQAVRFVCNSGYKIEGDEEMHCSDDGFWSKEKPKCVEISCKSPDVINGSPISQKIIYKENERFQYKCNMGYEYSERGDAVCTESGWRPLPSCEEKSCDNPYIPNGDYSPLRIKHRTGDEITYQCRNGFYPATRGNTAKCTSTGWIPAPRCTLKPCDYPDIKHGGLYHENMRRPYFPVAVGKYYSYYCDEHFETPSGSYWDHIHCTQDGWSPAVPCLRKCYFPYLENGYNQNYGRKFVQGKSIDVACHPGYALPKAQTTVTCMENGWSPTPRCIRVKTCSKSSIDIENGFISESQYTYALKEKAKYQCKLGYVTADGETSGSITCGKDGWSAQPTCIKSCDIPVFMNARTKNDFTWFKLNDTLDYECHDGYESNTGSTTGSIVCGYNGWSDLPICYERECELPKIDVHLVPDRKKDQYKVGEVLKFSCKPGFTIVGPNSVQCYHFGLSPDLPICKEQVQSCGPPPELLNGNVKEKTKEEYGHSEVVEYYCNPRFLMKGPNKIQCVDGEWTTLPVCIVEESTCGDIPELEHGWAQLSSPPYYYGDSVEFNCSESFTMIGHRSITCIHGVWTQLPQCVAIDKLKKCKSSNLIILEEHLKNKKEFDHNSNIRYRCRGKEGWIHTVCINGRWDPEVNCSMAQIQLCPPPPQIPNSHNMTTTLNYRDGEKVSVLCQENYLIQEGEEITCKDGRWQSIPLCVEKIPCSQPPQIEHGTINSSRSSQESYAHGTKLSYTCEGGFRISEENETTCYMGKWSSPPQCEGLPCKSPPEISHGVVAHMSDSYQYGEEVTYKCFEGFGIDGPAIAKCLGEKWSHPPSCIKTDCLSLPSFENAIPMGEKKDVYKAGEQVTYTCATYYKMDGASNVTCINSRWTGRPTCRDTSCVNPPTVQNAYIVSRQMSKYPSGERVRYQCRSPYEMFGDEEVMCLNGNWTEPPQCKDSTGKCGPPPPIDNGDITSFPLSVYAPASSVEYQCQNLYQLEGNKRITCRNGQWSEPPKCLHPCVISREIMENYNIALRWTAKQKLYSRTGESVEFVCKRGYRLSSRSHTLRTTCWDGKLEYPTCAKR

C2, P06681 = target: T3, C2, P06681
T3 chain: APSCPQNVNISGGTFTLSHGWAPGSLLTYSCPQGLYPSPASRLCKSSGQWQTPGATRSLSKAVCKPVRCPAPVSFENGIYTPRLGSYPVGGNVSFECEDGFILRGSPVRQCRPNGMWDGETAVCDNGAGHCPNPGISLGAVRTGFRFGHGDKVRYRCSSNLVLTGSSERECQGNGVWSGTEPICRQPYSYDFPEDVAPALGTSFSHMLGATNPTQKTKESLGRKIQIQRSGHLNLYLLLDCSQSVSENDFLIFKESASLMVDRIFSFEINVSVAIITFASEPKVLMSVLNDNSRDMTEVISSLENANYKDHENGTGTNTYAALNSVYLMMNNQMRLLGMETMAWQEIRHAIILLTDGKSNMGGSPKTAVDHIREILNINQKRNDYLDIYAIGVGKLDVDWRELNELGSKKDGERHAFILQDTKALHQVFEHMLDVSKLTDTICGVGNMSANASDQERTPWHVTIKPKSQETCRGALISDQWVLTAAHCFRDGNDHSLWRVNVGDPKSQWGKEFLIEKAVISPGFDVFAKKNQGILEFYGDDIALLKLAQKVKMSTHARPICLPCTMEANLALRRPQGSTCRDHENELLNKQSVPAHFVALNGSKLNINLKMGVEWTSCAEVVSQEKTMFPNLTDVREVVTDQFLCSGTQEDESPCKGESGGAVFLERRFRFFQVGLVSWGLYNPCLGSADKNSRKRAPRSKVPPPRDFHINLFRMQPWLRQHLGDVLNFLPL

B1: PrtI(ProB) (protein)
chain: AIGETSVQNVKVSVAKNESDSQKFNNSQNLEQKTPQAAAANQNGSQVQNDHTETQLQNQQTTQSQVTQAHTEENNASSIPEPANQADHVKGNVQSAWDQGYKGQNTVVAVIDSGADTSHKDFQTMPSNPKLKQEDVQSKIDQQGYGKYVNEKFPYVYNYADRDNDYIKSDDNNQXNDSPHGQHVSGIIAADGHPEGDQQYVVGVAPEAQLMQLRVFGQFSDEKTDDVARAIYDATNLGADVIQMSLGQGVADQQLTNIEQKAVQYAIDHGVFVSISASNNGNSASVDNPSKVTAKGYGSGSEAGNYEPLNSGTVANPGASKNALTVAAETSGTGKDSDMASFSSWGPLSDFSLKPDLSAPGYQVVSTVNDNQYQTMSGTSMAGPFAAGSAALVIQRLKQTNPELKGAELVAATKALLMNSAKVQTQNGYTTPVSPRRQGAGQIDVGAATANPVYVTAADGTSSLSLRQVDEKTTFTLTFHNLTDQEQSYSFNDLGGGYTEQRDPDSGVFHEVQLAGAHVNGVGNFTLAPKEVKDLQYTLDLQGLNKNQPVEGWLHFTNDKDKSTVVVPYLAYYGDLTSENVFDQNANEEKPDIQGNRFVNENNYPLGVTDQESLKQLVNVDSDYNWQEVAKLYESGKVAFSPNDDHQSDLIKPYAYLKQNVKDLKVEILDAKGNVVRVVSDVQGVDKSYDESGVTKDASLSVSMRDNPDAFEWDGKVYDTKTGQMVTAPDGQYTYRFVATLWNEGPNQKQTADFPVVVDTQAPSLSVKYDSATHTLSGNYEDKGAGFTDYSYVTVQVNDKVFGYKLNEGESGFDNSEKTKGHFNFTLSSDALDALSGSLNKVSVTLSDVANNTTVKTVDVPAVKDQPAVSVWNATEGVEFNKNSKDYNKENDTYTLYGSAAQDFYLNGALVQVRDGKYEVPVKTTTQDLVFSTDQAGKNVLKSFTTFTPKAFFNWQNVDGFDGNFGVNIYSVKTNDPNNAVVQAAVPLGKNVKAYAQDYFTGEVYKGQVENGVATFHVHTSINQGEDGIFKRALLTGWSEVDGPAYNDKQVTSKAGVASSNHLGVYYTTDKVNRKVYTDRADLGVDVQDEAADLSSFGPTAYPGHALADLTTRTDPNPAIHFDYLNDNDTTRFGQNAVTDGYYDSVTKKFTVTGHVDPEVKSLTVLGDSSDENAPQNQVKLGKDGKFSFSFTTENVGQRPVAYIYTDQNGQKVRGTLNVVLDTVAPTLNVDQVNGNELEVKTNNPLFKLSGVVNDNLDGYRLYVNGNNIYREFLNSGYNKLAGLNTDGTDVNPYGPHNFEESFNLNDDNNQPTTHVFTIYVVDQVGNKVEKKIAVNYDPDYVA
modifications: not fully specified; X: residue not identified in the source
IL-3
  protein cleavage assay (SDS-PAGE): has activities against
IL-10
  protein cleavage assay (SDS-PAGE): has activities against
Human C5a, P01031
  protein cleavage assay (SDS-PAGE): has activities against
C3, P01024
  proteolytic activity (SDS-PAGE): None of the complement proteins tested show evidence of breakdown
Properidin, P27918
Properidin, P27918, sequence (P27918 28-469): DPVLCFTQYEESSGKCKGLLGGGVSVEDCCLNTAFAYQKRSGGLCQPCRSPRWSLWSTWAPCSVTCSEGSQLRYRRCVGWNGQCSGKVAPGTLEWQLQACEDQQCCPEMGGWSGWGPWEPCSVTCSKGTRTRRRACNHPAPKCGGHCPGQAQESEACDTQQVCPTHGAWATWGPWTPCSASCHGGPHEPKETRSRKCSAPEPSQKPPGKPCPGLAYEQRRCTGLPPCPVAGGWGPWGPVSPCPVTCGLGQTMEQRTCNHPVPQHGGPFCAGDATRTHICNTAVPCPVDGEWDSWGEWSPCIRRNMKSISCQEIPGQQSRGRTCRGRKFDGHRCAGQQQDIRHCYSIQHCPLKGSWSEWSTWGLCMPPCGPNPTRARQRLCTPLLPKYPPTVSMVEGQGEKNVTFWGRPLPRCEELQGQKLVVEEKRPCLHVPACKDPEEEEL
  proteolytic activity (SDS-PAGE): None of the complement proteins tested show evidence of breakdown
IP-10
  protein cleavage assay (SDS-PAGE): has activities against
Factor H, P08603
  proteolytic activity (SDS-PAGE): None of the complement proteins tested show evidence of breakdown
C2, P06681
  proteolytic activity (SDS-PAGE): None of the complement proteins tested show evidence of breakdown
IL-17
  protein cleavage assay (SDS-PAGE): has activities against
IL-1β
  protein cleavage assay (SDS-PAGE): has activities against
Factor B, P00751
Factor B, P00751, sequence (P00751 26-764): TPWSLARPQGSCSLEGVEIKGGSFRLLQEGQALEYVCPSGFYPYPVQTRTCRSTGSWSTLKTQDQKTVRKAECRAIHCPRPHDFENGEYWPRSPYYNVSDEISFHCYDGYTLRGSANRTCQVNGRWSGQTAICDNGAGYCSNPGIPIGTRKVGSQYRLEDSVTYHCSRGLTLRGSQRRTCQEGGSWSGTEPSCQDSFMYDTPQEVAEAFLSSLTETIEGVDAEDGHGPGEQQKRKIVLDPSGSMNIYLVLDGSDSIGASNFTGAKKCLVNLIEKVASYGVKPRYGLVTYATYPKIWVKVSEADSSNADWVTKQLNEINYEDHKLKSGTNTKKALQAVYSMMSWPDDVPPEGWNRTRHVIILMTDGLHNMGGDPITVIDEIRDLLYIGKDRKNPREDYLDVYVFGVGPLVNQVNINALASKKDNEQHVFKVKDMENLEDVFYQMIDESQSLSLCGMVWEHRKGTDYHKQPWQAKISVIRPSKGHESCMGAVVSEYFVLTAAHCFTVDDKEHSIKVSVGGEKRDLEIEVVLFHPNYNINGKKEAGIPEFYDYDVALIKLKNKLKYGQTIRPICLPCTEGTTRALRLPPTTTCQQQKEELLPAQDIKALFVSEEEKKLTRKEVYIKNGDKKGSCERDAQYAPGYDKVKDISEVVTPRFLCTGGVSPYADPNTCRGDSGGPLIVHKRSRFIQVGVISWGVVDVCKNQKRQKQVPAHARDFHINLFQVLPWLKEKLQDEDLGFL
  proteolytic activity (SDS-PAGE): None of the complement proteins tested show evidence of breakdown
C4
  proteolytic activity (SDS-PAGE): None of the complement proteins tested show evidence of breakdown
TNF-α
  protein cleavage assay (SDS-PAGE): has activities against
HSA, P02768
  digestion (SDS-PAGE): did not digest
C3a, P01024
  protein cleavage assay (SDS-PAGE): has activities against
  proteolytic activity (control of enzyme stock): shown to be active against C3a
Factor XI
  digestion (SDS-PAGE): did not digest
IL-8
  protein cleavage assay (SDS-PAGE): has activities against
Factor XIII
  digestion (SDS-PAGE): did not digest
BSA, P02769
BSA, P02769, sequence (P02769 25-607): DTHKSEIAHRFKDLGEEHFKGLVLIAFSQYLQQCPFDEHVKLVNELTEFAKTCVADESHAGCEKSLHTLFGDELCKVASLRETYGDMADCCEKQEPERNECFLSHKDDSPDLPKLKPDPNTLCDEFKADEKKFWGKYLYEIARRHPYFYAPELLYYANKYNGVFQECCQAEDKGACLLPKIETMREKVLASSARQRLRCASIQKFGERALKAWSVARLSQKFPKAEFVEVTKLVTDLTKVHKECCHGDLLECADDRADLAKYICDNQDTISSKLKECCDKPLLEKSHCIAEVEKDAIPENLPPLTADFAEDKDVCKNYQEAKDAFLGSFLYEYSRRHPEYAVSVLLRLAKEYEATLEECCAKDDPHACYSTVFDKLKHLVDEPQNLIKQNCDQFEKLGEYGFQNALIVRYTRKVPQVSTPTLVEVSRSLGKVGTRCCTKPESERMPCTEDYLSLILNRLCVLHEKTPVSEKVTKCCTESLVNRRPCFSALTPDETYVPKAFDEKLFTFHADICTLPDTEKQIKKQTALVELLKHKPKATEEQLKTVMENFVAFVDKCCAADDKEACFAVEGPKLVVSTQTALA
  digestion (SDS-PAGE): did not digest
Mouse C3a, P01027
  protein cleavage assay (SDS-PAGE): has activities against
